Measured values published in patent US7262005.

Target: Fas receptor (UniProt P25445)
Assay: cell-based or functional assay

Chain of Fas receptor (P25445 26-335 limits assumed): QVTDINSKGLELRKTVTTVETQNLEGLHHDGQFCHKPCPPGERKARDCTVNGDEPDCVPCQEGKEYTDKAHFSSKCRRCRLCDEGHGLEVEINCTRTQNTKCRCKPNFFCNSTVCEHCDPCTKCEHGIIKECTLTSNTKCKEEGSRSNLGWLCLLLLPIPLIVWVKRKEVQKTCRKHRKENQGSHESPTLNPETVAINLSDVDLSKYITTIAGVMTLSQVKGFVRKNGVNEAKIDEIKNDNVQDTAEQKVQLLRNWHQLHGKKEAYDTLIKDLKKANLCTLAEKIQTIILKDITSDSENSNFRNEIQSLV

CH-11 anti-Fas IgM (antibody) gave a 460/530 emission ratio, + αFas/+ chx, Jurkat cells expressing 2XUb-DEVD-Bla, 50 ng/ml anti-Fas IgM for 6 hours (460/530 emission ratio) of 0.67 and an EC50 of caspase activation in Jurkat cells expressing 2XUb-DEVD-Bla (β-lactamase activity, CCF2 460/530 nm ratio after cycloheximide chase) of 0.011 µg/mL.
